From publication PMC12313893, “Queuosine is incorporated into precursor tRNA before splicing”

How the values were obtained:
[1] = target: T1, QTRT1 (catalytic subunit of TGT);QTRT2 (accessory subunit of TGT) (Mus musculus;Mus musculus, UniProt Q9JMA2;B8ZXI1 1-403;1-415, |); experiment: MST; 9-deazaguanine; apparent Kd from peer review file; MST: 20 mM HEPES pH 7.5, 75 mM NaCl, 1 mM MgCl2, 0.025% Tween 20, 2 mM DTT, 50 nM Cy5-tRNA, 25 C, +/-100 uM 9dG; EMSA: same buffer without Tween, 100 uM 9dG, 200 nM tRNA, 4 C, 6% native gel; conditions: protein: recombinant;recombinant; copies: 1;1; label: Cy5-cytosine incorporated during transcription (MST); tRNA cloverleaf with intron in anticodon loop
T1 sequence (Q9JMA2 whole entry, chain 1 of 2): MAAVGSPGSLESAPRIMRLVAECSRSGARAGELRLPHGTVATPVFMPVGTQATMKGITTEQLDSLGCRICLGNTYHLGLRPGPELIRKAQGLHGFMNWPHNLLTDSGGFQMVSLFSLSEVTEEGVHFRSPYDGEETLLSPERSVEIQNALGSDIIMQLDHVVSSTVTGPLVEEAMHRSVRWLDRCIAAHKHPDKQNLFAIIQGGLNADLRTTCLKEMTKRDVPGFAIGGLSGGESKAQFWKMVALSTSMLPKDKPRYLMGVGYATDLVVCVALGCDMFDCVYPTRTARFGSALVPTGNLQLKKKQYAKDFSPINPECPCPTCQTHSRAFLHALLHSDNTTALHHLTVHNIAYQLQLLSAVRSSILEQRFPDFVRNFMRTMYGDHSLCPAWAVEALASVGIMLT
T1 sequence (B8ZXI1 whole entry, chain 2 of 2): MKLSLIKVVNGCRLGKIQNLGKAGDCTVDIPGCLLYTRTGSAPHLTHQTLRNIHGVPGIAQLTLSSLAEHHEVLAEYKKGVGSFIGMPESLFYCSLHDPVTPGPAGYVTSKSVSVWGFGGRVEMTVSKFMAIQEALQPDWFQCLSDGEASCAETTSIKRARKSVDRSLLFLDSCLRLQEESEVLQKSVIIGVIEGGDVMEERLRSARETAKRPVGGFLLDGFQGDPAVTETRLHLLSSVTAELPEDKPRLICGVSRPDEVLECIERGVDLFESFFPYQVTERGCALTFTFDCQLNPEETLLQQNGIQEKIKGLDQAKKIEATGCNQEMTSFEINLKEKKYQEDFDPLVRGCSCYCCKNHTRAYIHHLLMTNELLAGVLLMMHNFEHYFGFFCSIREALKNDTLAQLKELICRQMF

[2] = target: T1, QTRT1 (catalytic subunit of TGT);QTRT2 …; experiment: MST; no 9dG; value from peer review file (main text calls 2-1 slightly weaker); MST: 20 mM HEPES pH 7.5, 75 mM NaCl, 1 mM MgCl2, 0.025% Tween 20, 2 mM DTT, 50 nM Cy5-tRNA, 25 C, +/-100 uM 9dG; EMSA: same buffer without Tween, 100 uM 9dG, 200 nM tRNA, 4 C, 6% native gel; conditions: protein: recombinant;recombinant; copies: 1;1; label: Cy5-cytosine incorporated during transcription (MST); tRNA cloverleaf with intron in anticodon loop
[3] = target: T1, QTRT1 (catalytic subunit of TGT);QTRT2 …; experiment: MST; 100 uM 9-deazaguanine; apparent Kd (covalent trapping); MST: 20 mM HEPES pH 7.5, 75 mM NaCl, 1 mM MgCl2, 0.025% Tween 20, 2 mM DTT, 50 nM Cy5-tRNA, 25 C, +/-100 uM 9dG; EMSA: same buffer without Tween, 100 uM 9dG, 200 nM tRNA, 4 C, 6% native gel; conditions: protein: recombinant;recombinant; copies: 1;1; label: Cy5-cytosine incorporated during transcription (MST, EMSA); tRNA cloverleaf with intron in anticodon loop
[4] = target: T1, QTRT1 (catalytic subunit of TGT);QTRT2 …; experiment: MST; no 9dG; MST: 20 mM HEPES pH 7.5, 75 mM NaCl, 1 mM MgCl2, 0.025% Tween 20, 2 mM DTT, 50 nM Cy5-tRNA, 25 C, +/-100 uM 9dG; EMSA: same buffer without Tween, 100 uM 9dG, 200 nM tRNA, 4 C, 6% native gel; conditions: protein: recombinant;recombinant, copies: 1;1, label: Cy5-cytosine incorporated during transcription (MST, EMSA)
[5] = target: T1, QTRT1 (catalytic subunit of TGT);QTRT2 …; experiment: MST; 100 uM 9-deazaguanine; apparent Kd (covalent trapping; review file cites 1.2); MST: 20 mM HEPES pH 7.5, 75 mM NaCl, 1 mM MgCl2, 0.025% Tween 20, 2 mM DTT, 50 nM Cy5-tRNA, 25 C, +/-100 uM 9dG; EMSA: same buffer without Tween, 100 uM 9dG, 200 nM tRNA, 4 C, 6% native gel; conditions: protein: recombinant;recombinant; copies: 1;1; label: Cy5-cytosine incorporated during transcription (MST, EMSA); tRNA cloverleaf

B1: m_pre-tRNATyr 2-1 (intron-containing) (structured_RNA)
RNA: GGCCUUCGAUAGCUCAGUUGGUAGAGCGGAGGACUGUAGUCAGUACAAUAUGGUAAUCCUUAGGUCGCUGGUUCGAUUCCGGCUCGAAGGA
modifications: none (unmodified transcript)
Work on B1 yielded a Kd [1] of 1.4 µM and a Kd [2] of 2.7 µM.

B2: m_pre-tRNATyr 1-4 (intron-containing) (structured_RNA)
RNA: GGCCUUCGAUAGCUCAGUUGGUAGAGCGGAGGACUGUAGGUCAUUGUUCUAGAAAUCCUUAGGUCGCUGGUUCGAAUCCGGCUCGAAGGA
modifications: none (unmodified transcript)
With B2 the Kd [3] was 2.4 ± 0.2 µM and the Kd ([4]; tRNA cloverleaf with intron in anticodon loop) was 6 ± 0.7 µM.

B3: m_tRNATyr (mature, GUA) (structured_RNA)
RNA: GGCCUUCGAUAGCUCAGUUGGUAGAGCGGAGGACUGUAGAUCCUUAGGUCGCUGGUUCGAAUCCGGCUCGAAGGA
modifications: none (unmodified transcript)
Binder B3 has a Kd ([4]; tRNA cloverleaf) of 2.4 ± 0.7 µM and a Kd [5] of 1.1 ± 0.3 µM.
